To fix the notation:
B1: Hairpin Ribozyme (parent)
chain: GUCCUCUUUCACGUGCGCGUGAAAGAGAGAAGUGAACCAGAGAAACACACGUUGUGGUAUAUUACCUGGUA

This data set covers variants of B1. The data set is described as follows: self-cleavage, relative activity (ratio to wild type); higher = more cleavage; co-transcriptional.
For C65A G68A, the self-cleavage is 0.378.
The result for U67A U70G reads 0.186.
With U53C G57U the figure was 0.234.
With A28U A43C the figure was 0.133.
For C4G C50U, the self-cleavage is 0.154.
In the case of G29A A36C, the self-cleavage turned out to be 0.0858.
As for G13U U55C, the self-cleavage was determined as 0.254.
Consider C38G U53G, for which the self-cleavage stood at 0.206.
With U14C U33C the figure was 0.0775.
The result for C16U G56U reads 0.189; that for C16U G56C, 0.127; that for C12G A31G, 0.455.
In the case of G15U G27U, the self-cleavage stood at 0.35.
With U8G C18U the figure was 0.678; with A22U A61C, 0.171; with U33A G54C, 0.128.
Consider C10A C65G, for which the self-cleavage stood at 0.388.
Regarding U8A A30U, the self-cleavage was 0.0488.
With C3G A71G the figure was 0.308.
With U5C C37U the figure was 0.348.
With U5A A44U the figure was 0.125; with U14A A39U, 0.408; with A23U G54A, 0.551.
Regarding G17C G51U, the self-cleavage turned out to be 0.679.
The result for C18U U63A reads 0.229.
Consider C18U U63G, for which the self-cleavage is 0.278.
The result for C18U G68C reads 0.221; that for C18U G68U, 0.307; that for C18G U63A, 0.147.
With U7A A35C the figure was 1.28; with C16U C66G, 0.228.
The result for A44U A45U reads 0.229.
On to G40U G68C, for which the self-cleavage was found to be 0.163.
The result for A11G G15A reads 0.896.
The result for A61G A64U reads 0.202; that for A45G A61G, 0.169.
Turning to A24U A71G, the self-cleavage was 1.11.
With A39U G42U the figure was 0.172; with U7A G34A, 1.39; with C16A G25C, 0.499.
For the variant U9A A35C, the self-cleavage amounted to 0.69.
Regarding C4A U14A, the self-cleavage stood at 0.191.
Turning to G19A A43G, the self-cleavage was 0.16.
The result for A23U G32A reads 0.147; that for C12U U20C, 0.894; that for A11U G51U, 0.805.
In the case of U2C U67A, the self-cleavage came to 0.0712.
With U20G A39G the figure was 0.27; with A26U C46A, 0.146; with C16U C38A, 0.172.
With G25C G69C, the self-cleavage was determined as 0.187.
The result for A24G G40U reads 0.147; that for U7C U33G, 0.129; that for A49U U63G, 0.111.
With G1A A43G the figure was 0.2; with G1A A43U, 0.0738.
Take C16A C46A: the self-cleavage is 0.197.
C48A G68U: the self-cleavage was 0.16.
The result for U9C A49C reads 0.204; that for C6U G21U, 0.468.
With A26C A64C the figure was 0.216; with G15A C66A, 0.129.
With G40C G68A the figure was 0.132; with A23C A31C, 0.185; with U5C G51U, 0.704.
For U5C G51C, the self-cleavage was 0.732.
With C37G G69C the figure was 0.984.
With A22U A30G the figure was 0.159.
Consider C65G C66G, for which the self-cleavage came out at 0.178.
The result for A24U C38U reads 0.471; that for U52A C65G, 0.258.
With A28C U70C the figure was 0.426; with A11G A22G, 0.774; with U8G C50U, 0.327.
The result for A23C reads 0.822.
On to A22G A31U, for which the self-cleavage was found to be 0.226.
For the variant U8G A44C, the self-cleavage was 0.139.
The result for G21U G69A reads 0.374; that for U8G U55C, 0.232; that for G1A U58G, 0.256.
The result for A30G C38A reads 0.0519; that for C6U U63G, 0.119.
With U8C C37U the figure was 0.347.
Consider C50G A71C, for which the self-cleavage was 0.69.
With A35G G69A the figure was 0.204; with U9C U53A, 1.19; with C50U U58G, 0.262.
Turning to A31G U67A, the self-cleavage came out at 0.0798.
With A41U U55A the figure was 0.808.
With G1U C48U the figure was 0.155; with C3A U8A, 0.547; with C18A G57C, 0.187.
With G25U G40A, the self-cleavage turned out to be 0.256.
With A44C C65A the figure was 0.213; with A24G C48G, 0.181; with U5A G56A, 0.214.
The result for A36C A45G reads 0.133.
The result for G51A U63G reads 0.135.
As for C38A C65G, the self-cleavage stood at 0.104.
With G13A C16G the figure was 0.593; with G54A C65G, 0.107.
For the variant A24C C37U, the self-cleavage was 0.455.
With C12A U60A the figure was 0.621; with G15A U70C, 0.759.
As to U58A U70G, the self-cleavage was determined as 0.493.
With A61C U67A the figure was 0.252; with A31U G51U, 0.121; with G57C U70A, 0.184.
The result for A45U U58A reads 0.132; that for G27A A28C, 0.295; that for G19A A23G, 0.948.
The result for A47U A61U reads 0.211; that for C46A A47G, 0.133; that for U20A U53A, 0.758.
On to U14A A35C, for which the self-cleavage was 0.998.
The result for C37G U67C reads 0.167; that for C38G C50G, 0.0871; that for A22U A49U, 0.293.
With G1U C12U the figure was 0.17; with G19C A31G, 0.524.
With G19U A31U, the self-cleavage was 0.0864.
With C10A U14C the figure was 0.888; with A41G G51U, 0.552.
Regarding U7C A35G, the self-cleavage amounted to 0.931.
The result for G17C G68A reads 0.196.
Regarding G19C A49C, the self-cleavage came to 0.0455.
Turning to C6A C66U, the self-cleavage turned out to be 0.247.
With A23C G54C the figure was 0.337.
The result for G19U G34C reads 1.36.
With G25A A45C the figure was 0.109; with C3G U62G, 0.128; with G27C C50U, 0.0886.
G34A C66U: the self-cleavage came out at 0.609.
The result for U2C A43G reads 0.167; that for U52C G57A, 0.223.
With U14A U62A the figure was 0.0586.
The result for C6A G68C reads 0.13; that for U2G A45G, 0.118.
Regarding U58C G68A, the self-cleavage is 0.301.
With A47U G57A the figure was 0.417; with G13C A30G, 0.114; with G25A U53G, 0.524.
With U7G A44C the figure was 0.195; with G1A A71G, 0.205; with G19U G69U, 0.227.
The result for U55A G57C reads 0.146.
C10A A71C: the self-cleavage was 1.16.
With G32A U53G the figure was 0.146.
As to U14G C46U, the self-cleavage was 0.21.
As to G27U U67C, the self-cleavage worked out at 0.0907.
The result for A59C C66G reads 0.253; that for U5A A22C, 0.339; that for A23G C46A, 0.132.
With A28U A44C the figure was 0.179; with C46A G57C, 0.156; with G19C U67A, 0.323.
With A41U A47U the figure was 0.207.
With A11C C37G, the self-cleavage turned out to be 0.435.
The result for A23G C48U reads 0.232.
The result for A39G A41U reads 0.474; that for A35C A43G, 0.155; that for U2C G42C, 0.108.
The result for A23C A35G reads 0.942; that for G34A A59C, 0.148; that for C12U G21A, 0.748.
As to A43G G56A, the self-cleavage is 0.0841.
Turning to G21U U53C, the self-cleavage was determined as 0.85.

The values above are taken from the RNAGym collection of RNA variant scans (doi:10.7554/elife.80360).
